Article PMC4722173, “Identification of the Elusive Pyruvate Reductase of Chlamydomonas reinhardtii Chloroplasts” (Plant and Cell Physiology, 2015)

Columns and labels:
[1] = target: PFL1 (pyruvate formate lyase), endogenous, in Chlamydomonas reinhardtii whole-cell extract (Chlamydomonas reinhardtii (endogenous in whole-cell extract)); test: native gel or EMSA; 1D BN-PAGE of C. reinhardtii whole-cell extracts, immunoblot with Cr-LDH1 or PFL1 antibodies
His-tagged Cr-LDH1 [2] = target: T1, His-tagged Cr-LDH1 (Chlamydomonas reinhardtii, UniProt B0LUZ5); test: X-ray crystallography, […] Å; type: binding; settings: 300 µM NAD+ in protein solution before crystallization; active site of each monomer, near H378, R311, E340
T1 construct: residues 45-421, putative 44-residue chloroplast transit peptide removed, C-terminal His tag kept, codon-optimized synthetic gene, pET28b, E. coli KRX; 40 kDa, tetramer (about 200 kDa)
T1 sequence (B0LUZ5 45-421): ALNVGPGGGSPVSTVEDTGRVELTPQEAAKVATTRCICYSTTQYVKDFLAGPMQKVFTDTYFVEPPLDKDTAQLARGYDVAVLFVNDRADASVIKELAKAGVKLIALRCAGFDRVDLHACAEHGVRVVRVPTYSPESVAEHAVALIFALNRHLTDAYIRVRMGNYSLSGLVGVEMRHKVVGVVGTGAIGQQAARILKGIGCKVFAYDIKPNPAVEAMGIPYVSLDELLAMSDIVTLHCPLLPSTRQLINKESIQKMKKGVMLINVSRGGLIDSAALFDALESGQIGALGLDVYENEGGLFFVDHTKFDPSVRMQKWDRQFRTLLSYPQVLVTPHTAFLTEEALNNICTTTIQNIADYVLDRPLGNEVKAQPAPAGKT

His-tagged Cr-LDH1 [3] = target: T1, His-tagged Cr-LDH1; test: spectrophotometric NADH oxidation at […] nm; type: biochemical; settings: 300 µM NADH with pyruvate; pH 7.5; 25 °C; mere turnover
[4] = target: His-tagged recombinant Cr-LDH1 (NAD+-dependent D-lactate dehydrogenase encoded by Cre07.g324550), residues 45-421 (Chlamydomonas reinhardtii); test: crystal structure; sitting drop, approximately 14.5 mg/ml protein with 300 µM NAD+, 20% PEG 3350, 200 mM potassium nitrate; 2.46 Å; tetramer as predicted by PISA
purified protein [5] = substrate: O=CC(=O)O; test: purified protein; type: biochemical, Chlamydomonas reinhardtii; settings: 300 µM NADH, 25 mM sodium phosphate, 250 mM NaCl, pH 7.5, 25 °C
purified protein [6] = substrate: CC(=O)C(=O)O; test: purified protein; type: biochemical, Chlamydomonas reinhardtii; settings: 300 µM NADH, 25 mM sodium phosphate, 250 mM NaCl, pH 7.5, 25 °C, mean ± SD of two protein preparations
purified protein [7] = substrate: C[C@@H](O)C(=O)O; test: purified protein; settings: 300 µM NAD+, 25 mM sodium phosphate, 250 mM NaCl, pH 7.5, 25 °C

## PFL1 (pyruvate formate lyase), endogenous, in Chlamydomonas reinhardtii whole-cell extract (enzyme)
[1]
  stoichiometry N: 2

## NC(=O)c1ccc[n+]([C@@H]2O[C@H](COP(=O)(O)OP(=O)(O)OC[C@H]3O[C@@H](n4cnc5c(N)ncnc54)[C@H](O)[C@@H]3O)[C@@H](O)[C@H]2O)c1 [NAD^+]
His-tagged Cr-LDH1 [2]
  X-ray crystallography, 2.46 Å: NAD^+ molecules added during crystallization were observed in the active site of each monomer

## NC(=O)C1=CN([C@@H]2O[C@H](COP(=O)(O)OP(=O)(O)OC[C@H]3O[C@@H](n4cnc5c(N)ncnc54)[C@H](O)[C@@H]3O)[C@@H](O)[C@H]2O)C=CC1 [NADH]
His-tagged Cr-LDH1 [3]
  spectrophotometric NADH oxidation at 340 nm: preference for the reduction of pyruvate to D-lactate and a specificity for NADH

## His-tagged recombinant Cr-LDH1 (NAD+-dependent D-lactate dehydrogenase encoded by Cre07.g324550), residues 45-421 (enzyme)
[4]
  stoichiometry N: 4

B1: His-tagged Cr-LDH1 (Chlamydomonas reinhardtii) (protein)
chain: T1 sequence (B0LUZ5 45-421)
notes: residues 45-421, putative 44-residue chloroplast transit peptide removed, C-terminal His tag kept, codon-optimized synthetic gene, pET28b, E. coli KRX; 40 kDa, tetramer (about 200 kDa)
Purified protein [5]
  Km: 62 mM
  kcat: 60 s⁻¹
  kcat/Km: 1000 M⁻¹ s⁻¹
Purified protein [6]
  Km: 1.46 ± 0.01 mM
  kcat: 370 ± 2 s⁻¹
  kcat/Km: 255000 ± 7000 M⁻¹ s⁻¹
Purified protein [7]
  Km: 70 mM
  kcat: 10 s⁻¹
  kcat/Km: 150 M⁻¹ s⁻¹
